Values quoted from earlier work, collected in paper PMC4616163, “Inverse relationship between chitobiase and transglycosylation activities of chitinase-D from Serratia proteamaculans revealed by mutational and biophysical analyses” (Scientific Reports, 2015).

Parameters: method as in PMID 11160110, PMID 18368288
Conditions: other chitinases, literature

B1: SmChiA: mesophilic chitinase (protein, UniProt P07254 24-563, looked up)
Chitinase A: AAPGKPTIAWGNTKFAIVEVDQAATAYNNLVKVKNAADVSVSWNLWNGDAGTTAKILLNGKEAWSGPSTGSSGTANFKVNKGGRYQMQVALCNADGCTASDATEIVVADTDGSHLAPLKEPLLEKNKPYKQNSGKVVGSYFVEWGVYGRNFTVDKIPAQNLTHLLYGFIPICGGNGINDSLKEIEGSFQALQRSCQGREDFKVSIHDPFAALQKAQKGVTAWDDPYKGNFGQLMALKQAHPDLKILPSIGGWTLSDPFFFMGDKVKRDRFVGSVKEFLQTWKFFDGVDIDWEFPGGKGANPNLGSPQDGETYVLLMKELRAMLDQLSAETGRKYELTSAISAGKDKIDKVAYNVAQNSMDHIFLMSYDFYGPFDLKNLGHQTALNAPAWKPDTAYTTVNGVNALLAQGVKPGKVVVGTAMYGRGWTGVNGYQNNIPFTGTATGPVKGTWKNGIVDYRQIAGQFMSGEWQYTYDATAEAPYVFKPSTGDLITFDDARSVQAKGKYVLDKQLGGLFSWEIDADNGDILNSMNASLGNSAGVQ
- Tm: 64.2 °C
